Measurements reported in the nanobody polyreactivity screen of Harvey et al. (2022).

Assay: yeast display, Sf9 membrane polyspecificity reagent, FACS + sequencing; frameworks hold sequencing errors
Outline: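 A synthetic nanobody library was expressed on Saccharomyces cerevisiae BJ5465 by galactose induction for 36–48 hours. The library was stained for 1 hour at 4 °C with 10% biotinylated, detergent-solubilized Sf9 membrane reagent and enriched with streptavidin microbeads before FACS. Low and high (top ~1%) gates were set on anti-HA fluorescence for expression and streptavidin fluorescence for reagent binding, and each polyreactivity label reflects the gate of origin.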

Sequence | polyreactivity (PSR sort gate)
QVQLVESCVVLVQAAGSLRLSFAHSGSTFKVYAMGTYRQATGKERELVASISSGGSTNYADSVKGRFTISRDNAKNTVYLQMNSLKPEDTAVYYCALRRYTHRRYRFDYWGQGTQVTVSS | high polyreactivity
QVQLVESGAALVQAAGSLRLSCAASGSIFTPYAMGWYRQAPGKERELVAGIRSSGGRTYYADSVKGRFTISRDNAKNTVYLQMNSLKPEDTAVSYCAADQDWYGFVIGFDYWGQGTQVTVSS | low polyreactivity
QVQLVESGACLVKAGGSLRLSCAASGSSFYGYAMGWYRQAPGKERELVASITVSVGSTNADSVKGRFTISRDNAKNTVYLQMISLKPEDTAVYYCAAETVHSREQREGDYWGQGTQVSVSS | low polyreactivity
QVQLVESGACLVQAGGSLRLSFAASGSIFGWYTMGWYRPAPGKERELVAAISNSGTSSYYADSEKGRFTISRDTAKNTVYLQMNSLKPEDTAVYYCNAYSDLFGSYTDLGEYDYWVQGTQVTVSS | low polyreactivity
QVQLVESGAGFFQAGGSLRVSCAASGRTFPVYAMGWYRHAPGNERELVARINSGGRTTYADSVKGRFTISRDNAKNTVYLQMISLNPEDTAVYYCNARSWYYVWRKGYRHGDYWGQGTQVTVSS | high polyreactivity
QVQLVESGAGIVQAGGSLRLSCAASGRTCTWYAMGWYTQAPGKERELVAAISKSGGSTYYADSVKGRFTISRDTAKNTVFLQMNSLKPEDTAVYYCNADFYGYFLGYGYWGQGTQVTVSS | low polyreactivity
QVQLVESGAGIVQAGGSLRLSCAASGRTFNWYAMGLYTQPPGKERELVAAITYPGGTTYYADSVKGRFTISRDNAKNTVYLQMNSLKPEDTAVYYCAATFRYRRVTPTTRFNYWGQGTQVTVSS | high polyreactivity
QVQLVESGAGLVQAGGILRLSCAASGRTFYRNTMGWYRQAPGKEREFVAAISATAGRTYYADSVKGRFTISRDNAKNTVYLQMNSLKPEDTAVYYCAAVPLRNRLPNSWPALDYWGQGTQVTVSS | high polyreactivity
QVQLVESGAGLVQAGGRLRLSCAASGFTFYYNAMGWYRQAPGKEREFVAAISRSAGSTTYADSVKGRFTISRDNAKNTVYLQMNSLKPEDTAVYYCNARRSRGKSYDYWGQGTQVTVSS | high polyreactivity
QVQLVESGAGLVQAGGSLRFSCAASGFIFVAYAMGLYRPAPGKERELVAAITSSGGTTYYADSVKGRFTISRDNAKNSVYFQMNSLKPEDTAVYYSAAYRRRSPFEYWGQGTQVNVSS | high polyreactivity
QVQLVESGAGLVQAGGSLRISCDASGSIFWSYAMGWYRQAPGKERELVADITGIGGSTYYADSVKGRFTISRDNAKNTVYLQMNSLKPEDTAVYYCAADTWFTAQTYNFYYRGQGTQVTVSS | high polyreactivity
QVQLVESGAGLVQAGGSLRLSCAASGFTLVLNAMGGYSQAPGKERELVAAIRRSAGSTYYADSVKGRFTISRDNAKNTVYLQMNSLKPEDTAVYYSNADYTYTDRRFAPAGGWYYYWGQGTQVTVSS | low polyreactivity
QVQLVESGAGLVQAGGSLRLSCAASGGTLRYYAMGWYRPAPGKEREFVASISRSGGSTYYADSVKGRFTISRYNAKNTVYLQMNSLKPEDTAVYYCAAYWSPGYTTGRGYWGQGTQVTVSS | high polyreactivity
QVQLVESGAGLVQAGGSLRLSCAASGLTFIYNAMVWYRQAPGKERELVAAISGNGGDTYYADSVKGRFTLSRDNAKNTVYLQMNSLKPEDTAVYYCAADYAYTPITCDEYWGQGTKVTVSS | low polyreactivity
QVQLVESGAGLVQAGGSLRLSCAASGLTFRSYAMGWYRQAPGKERELVAAITRSGGSTYYADSVKGRFTISRDNAKNTVYLQMNSLKPEDTAVYYCAARYKGNPDRYGYWGQGTQVTVSS | high polyreactivity
QVQLVESGAGLVQAGGSLRLSCAASGPILRTYAKGWYRQAPGKERELVAAISRSGGSSYYADSVKGRFTLSRDNAKNTVYLLMNSLKPEDTAVYYCNKAYGGRGYKYEYWGQGSQVTVSS | high polyreactivity
QVQLVESGAGLVQAGGSLRLSCAASGRTFGTNTKGWYRPAPGKEREFVATITSSGGSTYYADSVKGRFTISRDNAKNTVYLQMNSLKPEDTAVYYCATDPYGGKTQYPSLRYDYWGQGTQVTVSS | low polyreactivity
QVQLVESGAGLVQAGGSLRLSCAASGSIFNSYAMGWYRQPPGKERELVAAISKAGGSTYYADSVKGRFTISRDNAKNTVYLQMNSQKPEDTAVYYCAARYGRCYDSAYNYWGQGTQVTVSS | high polyreactivity
QVQLVESGAGLVQAGGSLRLSCAASGSIFVYYTMGCYRQAPGKEREFVAAISFSGGSTYADSVKGRFTISRDNAKNTVYLQMNSLKPEDTAVYYCNADRWLYTPSKFVEMDFWGQGTQVTVSS | low polyreactivity
QVQLVESGAGLVQAGGSLRLSCAASGSNFKWYAMGLYRQAPGKEREFVAAITWSGSGTFYADSVKGRFTISRDNAKKTVYLQMNSLKPEDTAVYYCNKADSYLLYSVTARYFRGFYSWGQVTQVTVSS | high polyreactivity
QVQLVESGAGLVQAGGSLRLSCAASGSSFYFNAMGLYRQAPGKERELVAAIDWSGGSTYYADSVKGRFTISRDNAKNTVYLQMNSLKPEDTAVYYCAAPYHYYGNTVGYADYDYWGQVTQVTVSS | low polyreactivity
QVQLVESGAGLVQAGGSLRLSCAASGSTFPFYAMGWSRQAPGKERELVAAITSGGSTYADSVKGRFTISRDNAKNTVYLQMNSLKPEDTAVYYCNAEQNPSGLYDYRGVEGEMGYWGQGTQVTVSS | low polyreactivity

Sequence | polyreactivity (PSR sort gate)
QVQLVESGAGLVQAGGSLRLSCAASGSTFSRYAMGWYRQAPGKERELVAAISSRGGSTYYADSVKGRFTISRDNAKNTVYLQMNSLKPEDTAVYYCNALTSYQNHVYPYDYWGQGTQVTVSS | high polyreactivity
QVQLVESGAGLVQAGGSLRLSCAASGSTFSYYAMGWSRQAPGKERELVAAITSSGGSTYYADSVKGRFTISRDNAKNTVYLQMNSLKQEDTAVYYCNTAYHVPYDYWGQGTQVTVSS | low polyreactivity
QVQLVESGAGLVQAGGSLRLSCAASGSTFSYYTMGWYRHAPGKERELVAAITSGGPTNYADSVKGRFTISRDNAKNTVYLQMNSLKPEDTAVYYCAAALYYGWGYYYWGQGTQVTVSS | low polyreactivity
QVQLVESGAGLVQAGGSLRLSCAASGSTSTLNAMGWYRQAPGTERELVAAISRSGTSTYYADSVKGRFTISRDNAKNTVYLQMNSLKPEDTAVYYCAAYSYGPPYYYWGQGTQVTVSS | high polyreactivity
QVQLVESGAGLVQAGGSLRLSCAASVRIFFYGMGWYIQAPGKQMELVATITSVSNTYYADSVKGRFTISRDNAKNTVYLQMNSLKPEDTAVYYCAARQDRYRYRYGYWGHGTQVTVSS | high polyreactivity
QVQLVESGAGLVQAGGSLRLSCAAYGFIFRTNAMGWYRQAPGKERELVAAISNSGGRTYYADSVKGRFTLSRDNSKNTVYLQMNSLKPEDTAVYYCAAVLWYDIYYGGDYWGQGTQVTVSS | high polyreactivity
QVQLVESGAGLVQAGGSLRLSCADSVNTFWYYTMGWYRQAPGKERELVAAISRGGRPYYADSVKGRFTISRDNAKNTVYLQMNSLKPEDTAVYNCNKPAPYTGSFDRSGIFDYWGQGTQVTVSS | high polyreactivity
QVQLVESGAGLVQAGGSLRLSCASSGYIFDRYAMGWYRQAPGKERELVAAISGRGGSTYYADSVKGRFTISRDNAKYTVYLKMNSLKPEDTAVYYCARDVYVRYGQRARYDSWGQGTQVTVSS | high polyreactivity
QVQLVESGAGLVQAGGSLRLSFAASGRTFVYNAMAWYRQAPGKERELVAAIDGGGDRTYYADSVKGRFTISRDNAKNTVYLQMNSLKPEDTAVYYCARDPGDTYYYSYPEGDYWGQGTLVTVSS | low polyreactivity
QVQLVESGAGLVQAGGSLRLSSAASGGTFGHYVMGWYRPAPGKERELVAVISRRGGSTYYADSVKGRFTISRDTAKNTVYLQMNSLKPEDTAVYYCAAYQDVSYFKYSPYDYWGQGTQVTVSS | high polyreactivity
QVQLVESGAGLVQAGGSLRLTCAASGRIFVINAMGWLRQAPGKETELVAPITGGGSTNYADSVKGRFTISRDNAKNTVYLQMNSLKPEDTAVYYCAADYRPVRRFYYSRYDYWGQGTQVTVSS | low polyreactivity
QVQLVESGAGLVQAGGSLRVSCAASGLIFAWYAMGWYRQAPGKERELVATIDVSGGTYYADSVKGRFTISRDNAQNTVYLQMNSLNPEDTAVYYCAAGVTYWYDAPEYYYWGQVTQVTVSS | high polyreactivity
QVQLVESGAGLVQAGGTLRLSCAASGFTCRYYAMGWSRQAPGKERELVASISWSGDSTYYADSVKGRFTISRDNAKNTGYLQMNSLKPEETAFYYCARQTGFPRSYIYRMYYWGQGTQVTVSS | high polyreactivity
QVQLVESGAGLVQAGVSLGLSCAASGFTFVRDAMGWYRQAPGKEREFVASISARGGNTFYADSVQGRFSISRDNAKNTVYLKMNSLKPEDTAVYYCAKRGPYGTGYGYWGQGTQVTVSS | high polyreactivity
QVQLVESGAGLVQARGSLRLSCAASGFTISYYAMGWYRQAPVKERELVAAITSGGSTYYADYVKGRFTISRDNAKNTVYVQMNSLKPEDTAVYYCIADGWYYPTDDYWGQGSQVTVSS | low polyreactivity
QVQLVESGAGLVQEGGSLRLSCAASGFTFFGYAMGWYRQEPGKERELVATISDTGGSTYADSVKGRFTISRDTAKNTVYLQMNCVKPEDTAVYYCNARSVFYSMDYWGQGTQVTVSS | low polyreactivity
QVQLVESGAGLVQEGGSLRLSCAASGSIFVGNAMGWYRQAPGKERELVATISWSGGSTYYADSVKGRFTISRDNAKNTVYLQMNSLKPEDTAVYYCAKTPYRRYRYGGYTYRTYDYWGQGTQVTVSS | low polyreactivity
QVQLVESGAGLVRAGGSLRISCAASGNIYGANTMGWYRQAPGKERELDATITWSGGDTYYADSVKGRFTISRDNAKNSVYLQMNSLKPEDTAVYYCATRRFRYRPPFKYDYWVQGTQVTVSS | low polyreactivity
QVQLVESGARLVPAGGTLRLSFADYGFNFGQYAMAWYRQAPGKERELVAAISWSGGSTYYAESVKGRFTISRDNAKNTVYLQMNSLKPEDTAVYYCGEELGDYWGQGTQVTVSS | high polyreactivity
QVQLVESGARLVQEGGSLRLSCAASGSIFGRYVMGGYRQEPGKEREFVAAITYSGSSTYYADSVKGRFTISRDNAKNTVYLQMNSLKPEDSAVYYCNTYPGSFYWMGYWGQGTQVTVSS | high polyreactivity
QVQLVESGCGLVHAGGSLRLSCAASGRILRYYAMGWYGQAPGKDRELVAVITSSDGSTYYADSVKGRITISRDNAMNTVYLQMNSLKPEDTAVYYCAAAPLWRLASWWDPYRRYDYWGQGTQVTVSS | low polyreactivity
